Patent US20200223889A1 (Novo Nordisk, published 2020)
Positions of bridges follow the written chain, without caps; N, C: chain ends. Non-standard residues stand in square brackets, D forms with d. Lys(CH2CO2H)2 = N[C@@H](CCCCN(CC(=O)O)CC(=O)O)C(=O)O; Phe(3,4-(OMe)2) = COc1ccc(C[C@H](N)C(=O)O)cc1OC; 2Nal = N[C@@H](Cc1ccc2ccccc2c1)C(=O)O; Ser(ΨH,HPro) = O=C(O)[C@@H]1COCN1; Hyp = O=C(O)[C@@H]1C[C@@H](O)CN1; Cit = NC(=O)NCCC[C@H](N)C(=O)O; Pen = CC(C)(S)[C@H](N)C(=O)O; Pip = O=C(O)[C@@H]1CCCCN1; Thz = O=C(O)[C@@H]1CSCN1; Aze = O=C(O)[C@@H]1CCN1; Sar = CNCC(=O)O

How the values were obtained:
[1] = molecular target: T1, human melanocortin 4 receptor (human, UniProt P32245 1-332); assay: cell-based or functional assay
[2] = molecular target: human melanocortin 1 receptor (human, UniProt Q01726 1-317); assay: cell-based or functional assay
[3] = molecular target: T1, human melanocortin 4 receptor; assay: competition with 125-NDP-α-MSH, BHK human MC4R membranes
How it was run: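 Competition binding used membranes from BHK cells stably expressing human MC4R with ¹²⁵I-NDP-α-MSH (apx. […] final), compound at 1 μM–0.001 nM. Incubation was 2 h at 25 °C in HEPES pH 7.0 buffer with CaCl₂, MgSO₄, EGTA, Tween 20 and 0.1% HSA or ovalbumin. Filter-bound radioactivity was fitted by non-linear regression.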

Sequence of human melanocortin 1 receptor (Q01726 whole entry): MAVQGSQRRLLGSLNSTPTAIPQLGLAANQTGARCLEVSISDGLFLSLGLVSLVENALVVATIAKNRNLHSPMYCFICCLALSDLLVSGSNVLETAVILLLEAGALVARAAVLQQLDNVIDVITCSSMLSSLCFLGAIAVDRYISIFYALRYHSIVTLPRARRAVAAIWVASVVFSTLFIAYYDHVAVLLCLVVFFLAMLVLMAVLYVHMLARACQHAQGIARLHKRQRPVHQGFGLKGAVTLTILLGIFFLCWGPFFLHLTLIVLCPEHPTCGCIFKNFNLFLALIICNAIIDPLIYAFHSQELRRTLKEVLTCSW
T1 sequence (P32245 whole entry): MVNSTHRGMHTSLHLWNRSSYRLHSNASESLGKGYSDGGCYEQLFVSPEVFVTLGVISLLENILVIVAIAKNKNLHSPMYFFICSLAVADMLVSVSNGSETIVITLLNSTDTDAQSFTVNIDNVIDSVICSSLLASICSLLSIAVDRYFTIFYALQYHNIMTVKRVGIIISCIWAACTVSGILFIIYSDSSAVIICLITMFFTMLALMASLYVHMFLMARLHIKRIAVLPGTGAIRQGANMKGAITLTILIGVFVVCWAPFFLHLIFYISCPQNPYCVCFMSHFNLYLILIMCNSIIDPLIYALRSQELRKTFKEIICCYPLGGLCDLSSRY

| Binder | MC4R cAMP EC50 [1] [nM] | MC1R cAMP EC50 [2] [nM] | Ki [3] [nM] |
| --- | --- | --- | --- |
| cyclo([Pen]PH[dF]HWCAKKKR) (disulfide 1-7; SMILES C[C@@H]1NC(=O)[C@@H]2CSSC(C)(C)[C@H](NC(=O)[C@H](CCCNC(=N)N)NC(=O)[C@H](CCCCN)NC(=O)[C@H](CCCCN)NC(=O)[C@H](CCCCN)NC1=O)C(=O)N1CCC[C@H]1C(=O)N[C@@H](Cc1c[nH]cn1)C(=O)N[C@H](Cc1ccccc1)C(=O)N[C@@H](Cc1c[nH]cn1)C(=O)N[C@@H](Cc1c[nH]c3ccccc13)C(=O)N2, also called c[c[Pen-Pro-His-D-Phe-His-Trp-Cys]-Ala-Lys-Lys-Lys-Arg]) [Chem. 92] | 0.13 | 47.1 | 0.04 |
| cyclo(C[Sar]H[dF]HWCAKKKW) (disulfide 1-7; SMILES C[C@@H]1NC(=O)[C@@H]2CSSC[C@H](NC(=O)[C@H](Cc3c[nH]c4ccccc34)NC(=O)[C@H](CCCCN)NC(=O)[C@H](CCCCN)NC(=O)[C@H](CCCCN)NC1=O)C(=O)N(C)CC(=O)N[C@@H](Cc1c[nH]cn1)C(=O)N[C@H](Cc1ccccc1)C(=O)N[C@@H](Cc1c[nH]cn1)C(=O)N[C@@H](Cc1c[nH]c3ccccc13)C(=O)N2, also called c[c[Cys-Sar-His-D-Phe-His-Trp-Cys]-Ala-Lys-Lys-Lys-Trp]) [Chem. 73] | 1.26 | > 50 | 0.3 |
| cyclo(CAH[dF]R[2Nal]CAKKKW) (disulfide 1-7; SMILES C[C@@H]1NC(=O)[C@@H]2CSSC[C@H](NC(=O)[C@H](Cc3ccc4ccccc4c3)NC(=O)[C@H](CCCNC(=N)N)NC(=O)[C@@H](Cc3ccccc3)NC(=O)[C@H](Cc3c[nH]cn3)NC1=O)C(=O)N[C@@H](C)C(=O)N[C@@H](CCCCN)C(=O)N[C@@H](CCCCN)C(=O)N[C@@H](CCCCN)C(=O)N[C@@H](Cc1c[nH]c3ccccc13)C(=O)N2, also called c[c[Cys-Ala-His-D-Phe-Arg-2-Nal-Cys]-Ala-Lys-Lys-Lys-Trp]) [Chem. 79] | 0.02 | 1.16 | 0.03 |
| cyclo(CPH[dF]R[Phe(3,4-(OMe)2)]CAKKKR) (disulfide 1-7, also called c[c[Cys-Pro-His-D-Phe-Arg-3,4-DiMeO-Phe-Cys]-Ala-Lys-Lys-Lys-Arg]) [Chem. 94] | 4.38 | 113 | 0.25 |
| cyclo(C[Ser(ΨH,HPro)]H[dF]HWCAKKKW) (disulfide 1-7; SMILES C[C@@H]1NC(=O)[C@@H]2CSSC[C@H](NC(=O)[C@H](Cc3c[nH]c4ccccc34)NC(=O)[C@H](CCCCN)NC(=O)[C@H](CCCCN)NC(=O)[C@H](CCCCN)NC1=O)C(=O)N1COC[C@H]1C(=O)N[C@@H](Cc1c[nH]cn1)C(=O)N[C@H](Cc1ccccc1)C(=O)N[C@@H](Cc1c[nH]cn1)C(=O)N[C@@H](Cc1c[nH]c3ccccc13)C(=O)N2, also called c[c[Cys-OXA-His-D-Phe-His-Trp-Cys]-Ala-Lys-Lys-Lys-Trp]) [Chem. 103] | 0.05 | > 70 | 0.06 |
| cyclo(C[Thz]H[dF]HWCAA[Lys(CH2CO2H)2]AW) (disulfide 1-7; SMILES C[C@@H]1NC(=O)[C@H](C)NC(=O)[C@@H]2CSSC[C@H](NC(=O)[C@H](Cc3c[nH]c4ccccc34)NC(=O)[C@H](C)NC(=O)[C@H](CCCCN(CC(=O)O)CC(=O)O)NC1=O)C(=O)N1CSC[C@H]1C(=O)N[C@@H](Cc1c[nH]cn1)C(=O)N[C@H](Cc1ccccc1)C(=O)N[C@@H](Cc1c[nH]cn1)C(=O)N[C@@H](Cc1c[nH]c3ccccc13)C(=O)N2, also called c[c[Cys-THAZ-His-D-Phe-His-Trp-Cys]-Ala-Ala-Lys(CH2COOH)2-Ala-Trp]) [Chem. 104] | 0.6 | > 100 | 8.87 |
| cyclo(C[Thz]H[dF]HWC[Thz]H[dF]HW) (disulfide 1-7; SMILES O=C1N[C@H]2CSSC[C@H](NC(=O)[C@H](Cc3c[nH]c4ccccc34)NC(=O)[C@H](Cc3c[nH]cn3)NC(=O)[C@@H](Cc3ccccc3)NC(=O)[C@H](Cc3c[nH]cn3)NC(=O)[C@@H]3CSCN3C2=O)C(=O)N2CSC[C@H]2C(=O)N[C@@H](Cc2c[nH]cn2)C(=O)N[C@H](Cc2ccccc2)C(=O)N[C@@H](Cc2c[nH]cn2)C(=O)N[C@H]1Cc1c[nH]c2ccccc12, also called c[c[Cys-THAZ-His-D-Phe-His-Trp-Cys]-THAZ-His-D-Phe-His-Trp]) [Chem. 91] | 0.71 | > 10 | 0.51 |
| cyclo(CPH[dF]HW[Pen]AKKKR) (disulfide 1-7; SMILES C[C@@H]1NC(=O)[C@H]2NC(=O)[C@H](Cc3c[nH]c4ccccc34)NC(=O)[C@H](Cc3c[nH]cn3)NC(=O)[C@@H](Cc3ccccc3)NC(=O)[C@H](Cc3c[nH]cn3)NC(=O)[C@@H]3CCCN3C(=O)[C@H](CSSC2(C)C)NC(=O)[C@H](CCCNC(=N)N)NC(=O)[C@H](CCCCN)NC(=O)[C@H](CCCCN)NC(=O)[C@H](CCCCN)NC1=O, also called c[c[Cys-Pro-His-D-Phe-His-Trp-Pen]-Ala-Lys-Lys-Lys-Arg]) [Chem. 93] | 0.04 | 18.2 | 0.03 |
| cyclo(C[dP]H[dF]HWCAKKKW) (disulfide 1-7, also called c[c[Cys-D-Pro-His-D-Phe-His-Trp-Cys]-Ala-Lys-Lys-Lys-Trp]) [Chem. 98] | 2.7 | > 55 | 0.6 |
| cyclo(C[Thz]H[dF]HWCAKKKW) (disulfide 1-7; SMILES C[C@@H]1NC(=O)[C@@H]2CSSC[C@H](NC(=O)[C@H](Cc3c[nH]c4ccccc34)NC(=O)[C@H](CCCCN)NC(=O)[C@H](CCCCN)NC(=O)[C@H](CCCCN)NC1=O)C(=O)N1CSC[C@H]1C(=O)N[C@@H](Cc1c[nH]cn1)C(=O)N[C@H](Cc1ccccc1)C(=O)N[C@@H](Cc1c[nH]cn1)C(=O)N[C@@H](Cc1c[nH]c3ccccc13)C(=O)N2, also called c[c[Cys-THAZ-His-D-Phe-His-Trp-Cys]-Ala-Lys-Lys-Lys-Trp]) [Chem. 81] | 0.07 | 67 | 0.03 |
| cyclo(C[Aze]H[dF]HWCAKKKW) (disulfide 1-7; SMILES C[C@@H]1NC(=O)[C@@H]2CSSC[C@H](NC(=O)[C@H](Cc3c[nH]c4ccccc34)NC(=O)[C@H](CCCCN)NC(=O)[C@H](CCCCN)NC(=O)[C@H](CCCCN)NC1=O)C(=O)N1CC[C@H]1C(=O)N[C@@H](Cc1c[nH]cn1)C(=O)N[C@H](Cc1ccccc1)C(=O)N[C@@H](Cc1c[nH]cn1)C(=O)N[C@@H](Cc1c[nH]c3ccccc13)C(=O)N2, also called c[c[Cys-AZE-His-D-Phe-His-Trp-Cys]-Ala-Lys-Lys-Lys-Trp]) [Chem. 82] | 0.53 | 94.3 | 0.07 |
| cyclo(C[Pip]H[dF]HWCAKKKW) (disulfide 1-7, also called c[c[Cys-PIP-His-D-Phe-His-Trp-Cys]-Ala-Lys-Lys-Lys-Trp]) [Chem. 83] | 2.15 | > 10 | 0.17 |
| cyclo(CPH[dF][Cit]WCAKKKR) (disulfide 1-7; SMILES C[C@@H]1NC(=O)[C@@H]2CSSC[C@H](NC(=O)[C@H](CCCNC(=N)N)NC(=O)[C@H](CCCCN)NC(=O)[C@H](CCCCN)NC(=O)[C@H](CCCCN)NC1=O)C(=O)N1CCC[C@H]1C(=O)N[C@@H](Cc1c[nH]cn1)C(=O)N[C@H](Cc1ccccc1)C(=O)N[C@@H](CCCNC(N)=O)C(=O)N[C@@H](Cc1c[nH]c3ccccc13)C(=O)N2, Printed shorthand is identical to that of Chem. 99; the drawings may differ; also called c[c[Cys-Pro-His-D-Phe-Cit-Trp-Cys]-Ala-Lys-Lys-Lys-Arg]) [Chem. 72] | 0.03 | 5.86 | 0.03 |
| cyclo(C[Hyp]H[dF]HWCAKKKW) (disulfide 1-7; SMILES C[C@@H]1NC(=O)[C@@H]2CSSC[C@H](NC(=O)[C@H](Cc3c[nH]c4ccccc34)NC(=O)[C@H](CCCCN)NC(=O)[C@H](CCCCN)NC(=O)[C@H](CCCCN)NC1=O)C(=O)N1C[C@H](O)C[C@H]1C(=O)N[C@@H](Cc1c[nH]cn1)C(=O)N[C@H](Cc1ccccc1)C(=O)N[C@@H](Cc1c[nH]cn1)C(=O)N[C@@H](Cc1c[nH]c3ccccc13)C(=O)N2, also called c[c[Cys-Hyp-His-D-Phe-His-Trp-Cys]-Ala-Lys-Lys-Lys-Trp]) [Chem. 70] | 0.38 | 75.7 | 0.07 |
| cyclo(C[Thz]H[dF]HWCAEEAW) (disulfide 1-7; SMILES C[C@@H]1NC(=O)[C@H](CCC(=O)O)NC(=O)[C@H](CCC(=O)O)NC(=O)[C@H](C)NC(=O)[C@@H]2CSSC[C@H](NC(=O)[C@H](Cc3c[nH]c4ccccc34)NC1=O)C(=O)N1CSC[C@H]1C(=O)N[C@@H](Cc1c[nH]cn1)C(=O)N[C@H](Cc1ccccc1)C(=O)N[C@@H](Cc1c[nH]cn1)C(=O)N[C@@H](Cc1c[nH]c3ccccc13)C(=O)N2, also called c[c[Cys-THAZ-His-D-Phe-His-Trp-Cys]-Ala-Glu-Glu-Ala-Trp]) [Chem. 105] | 6.62 | > 100 | 43 |
| cyclo(C[Thz]H[dF]HWCADDAW) (disulfide 1-7; SMILES C[C@@H]1NC(=O)[C@H](CC(=O)O)NC(=O)[C@H](CC(=O)O)NC(=O)[C@H](C)NC(=O)[C@@H]2CSSC[C@H](NC(=O)[C@H](Cc3c[nH]c4ccccc34)NC1=O)C(=O)N1CSC[C@H]1C(=O)N[C@@H](Cc1c[nH]cn1)C(=O)N[C@H](Cc1ccccc1)C(=O)N[C@@H](Cc1c[nH]cn1)C(=O)N[C@@H](Cc1c[nH]c3ccccc13)C(=O)N2, also called c[c[Cys-THAZ-His-D-Phe-His-Trp-Cys]-Ala-Asp-Asp-Ala-Trp]) [Chem. 106] | 10.6 | > 100 | 42.8 |
| CXHFRWCXHFRW (Aib 2, 8; D-Phe 4, 10; disulphide Cys1-Cys7; head-to-tail amide Cys1-Trp12, also called c[c[Cys-Aib-His-D-Phe-Arg-Trp-Cys]-Aib-His-D-Phe-Arg-Trp]) [Chem. 9] | 0.02 | 4.02 | 0.06 |
